Data published in article PMC12079668, “Nanobodies against Cavin1 reveal structural flexibility and regulated interactions of its N-terminal coiled-coil domain” (Journal of Cell Science, 2025).

Key:
[1] = molecular target: T1, mouse Cavin1 HR1 Q76A (residues 45-155) (Mus musculus, UniProt O54724, Q76A); assay: ITC; NbA12 at 500 μM or NbB7 at 400 μM titrated into 30 μM (monomer) cavin HR1 domain or His-MBP full-length mC1; GF150 buffer (20 mM HEPES pH 7.4, 150 mM NaCl), 25°C; fitted with a 1:1 binding ratio; conditions: both partners purified
T1 construct: mouse Cavin1 (PTRF), HR1 domain, residues 45-155, Q76A; also called mC1 HR1 Q76A; source: E. coli BL21(DE3)pLysS, purified (TALON, SEC)

[2] = molecular target: T2, zebrafish Cavin4b HR1 domain (residues 12-133) (Danio rerio (Zebrafish) (Brachydanio …, UniProt Q5PQY9)); assay: as above; conditions: both partners purified
T2 construct: zebrafish Cavin4b, HR1 domain, residues 12-133 (codon-optimised construct); also called zC4b-HR1; zC4b HR1; source: E. coli BL21 CodonPlus (DE3), purified (TALON, SEC)

[3] = molecular target: T3, mouse Cavin1 HR1 T105D/S106D (TS/DD) mutant (Mus musculus, UniProt O54724, T105D | S106D); assay: ITC; 200 μM NbA12 or NbB7 titrated into 6.25 μM trimeric mC1-HR1 HT/II or TS/DD mutant; GF150 buffer, 25°C; single-site fit; conditions: both partners purified
T3 construct: mouse Cavin1 (PTRF), HR1 domain with T105D and S106D (phosphomimetic); also called mC1 HR1 TS/DD mutant; mC1-HR1(TS/DD); source: E. coli BL21 CodonPlus (DE3), purified (glutathione Sepharose, GST removed on-column with thrombin, SEC); not shown: GST, N-terminal, cleaved

[4] = molecular target: T4, mouse Cavin1 HR1 H102I/T105I (HT/II) mutant (Mus musculus, UniProt O54724, H102I | T105I); assay: as above; conditions: both partners purified
T4 construct: mouse Cavin1 (PTRF), HR1 domain with H102I and T105I; also called mC1 HR1 HT/II mutant; mC1-HR1(HT/II); source: E. coli BL21 CodonPlus (DE3), purified (glutathione Sepharose, GST removed on-column with thrombin, SEC); not shown: GST, N-terminal, cleaved

[5] = molecular target: T5, zebrafish Cavin4a HR1 domain (residues 16-123) (Danio rerio, UniProt A1L260); assay: ITC; NbA12 at 500 μM or NbB7 at 400 μM titrated into 30 μM (monomer) cavin HR1 domain or His-MBP full-length mC1; GF150 buffer (20 mM HEPES pH 7.4, 150 mM NaCl), 25°C; fitted with a 1:1 binding ratio; conditions: both partners purified
T5 construct: zebrafish Cavin4a, HR1 domain, residues 16-123 (codon-optimised construct); also called zC4a-HR1; zC4a HR1; source: E. coli BL21 CodonPlus (DE3), purified (TALON, SEC)

[6] = molecular target: T6, mouse Cavin1 HR1 domain T105D/S106D (TS/DD) mutant (Mus musculus (Mouse)., UniProt O54724, T105D | S106D); assay: ITC; 200 μM NbA12 or NbB7 titrated into 6.25 μM trimeric mC1-HR1 HT/II or TS/DD mutant; GF150 buffer, 25°C; single-site fit; conditions: both partners purified
T6 construct: mouse Cavin1 (PTRF), HR1 domain, residues 45-155, T105D/S106D (phosphomimetic); pGEX-4T2, GST removed with thrombin; also called mC1-HR1(TS/DD); source: E. coli BL21 CodonPlus (DE3), purified (glutathione Sepharose, thrombin on-column, SEC); not shown: GST, N-terminal, cleaved

[7] = molecular target: T7, mouse Cavin1 HR1 domain H102I/T105I (HT/II) mutant (Mus musculus, UniProt O54724, H102I | T105I); assay: as above; conditions: both partners purified
T7 construct: mouse Cavin1 (PTRF), HR1 domain, residues 45-155, H102I/T105I; pGEX-4T2, GST removed with thrombin; also called mC1-HR1(HT/II); source: E. coli BL21 CodonPlus (DE3), purified (glutathione Sepharose, thrombin on-column, SEC); not shown: GST, N-terminal, cleaved

[8] = molecular target: T8, GST-tagged mouse Cavin1 HR1 domain (Mus musculus (Mouse)., UniProt O54724); assay: pull-down; GST–mC1-HR1 (1 nmol) as bait on glutathione Sepharose, His-tagged nanobodies (2 nmol) as prey; 20 mM HEPES, 150 mM NaCl, 1 mM DTT, 0.1% IGEPAL, pH 7.4; 4°C; SDS-PAGE; conditions: both partners purified
T8 construct: mouse Cavin1 (PTRF), HR1 coiled-coil domain, residues 45-155; pGEX-4T2 with thrombin site; GST kept for the pull-down and the liposome pelleting assay; also called GST–mC1-HR1; GST-tagged mC1-HR1; source: E. coli BL21 CodonPlus (DE3), purified (glutathione Sepharose); not shown: GST, N-terminal, kept

[9] = molecular target: T9, mouse Cavin1 HR1 domain (residues 45–155), His-Ub-tagged (Mus musculus (Mouse)., UniProt O54724); assay: ITC; NbA12 at 500 μM or NbB7 at 400 μM titrated into 30 μM (monomer) HR1 domain of cavins or His-MBP full-length mC1; GF150 buffer (20 mM HEPES pH 7.4, 150 mM NaCl), 25°C; single-site fit; conditions: both partners purified
T9 construct: mouse Cavin1 (PTRF), HR1 coiled-coil domain, residues 45-155; pHUE vector; the methods say the His-Ub proteins were used for ITC; removal of the tag is not described; also called mC1-HR1; wild-type HR1 domain; source: E. coli BL21(DE3)pLysS, purified (TALON, SEC)

[10] = molecular target: T10, N-terminal fragment of mouse Cavin1 HR1 domain (residues 45–103) (Mus musculus (Mouse)., UniProt O54724); assay: as above; conditions: both partners purified
T10 construct: mouse Cavin1 (PTRF), N-terminal part of the HR1 domain, residues 45-103; also called mC1-HR1(45–103); shorter fragment of mC1-HR1; source: E. coli BL21(DE3)pLysS, purified (TALON, SEC)

[11] = molecular target: T11, full-length mouse Cavin1, His-MBP-tagged (Mus musculus (Mouse)., UniProt O54724); assay: as above; conditions: both partners purified
T11 construct: mouse Cavin1 (PTRF), full length; also called His-MBP full-length mC1; full-length MBP-tagged mC1; source: E. coli BL21(DE3)pLysS, purified (TALON, SEC)

[12] = molecular target: T12, zebrafish Cavin4b HR1 domain (Danio rerio, UniProt A0A8M1N3J3); assay: as above; conditions: both partners purified
T12 construct: zebrafish Cavin4b, HR1 domain; Codon-optimised construct; also called zC4b-HR1; source: E. coli BL21 CodonPlus (DE3), purified (TALON, SEC)

[13] = molecular target: T13, zebrafish Cavin4a HR1 domain (Danio rerio, UniProt A1L260); assay: as above; conditions: both partners purified
T13 construct: zebrafish Cavin4a, HR1 domain; Codon-optimised construct; also called zC4a-HR1; source: E. coli BL21 CodonPlus (DE3), purified (TALON, SEC)

endogenous CAV1 (HeLa) = molecular target: T14, endogenous CAV1 (HeLa) (Homo sapiens (Human)., UniProt Q03135); assay: co-IP; lysates of HeLa cells expressing NbA12–GFP or NbB7–GFP, GFP-binding nanobody on NHS-activated Sepharose; 0.5% Triton X-100; endogenous Cavin1 and CAV1 detected by western blot; conditions: partners not purified
T14 construct: CAV1 (caveolin 1), endogenous in human HeLa cells; also called caveolin 1; source: endogenous, HeLa lysate

endogenous Cavin1 (HeLa) = molecular target: T15, endogenous Cavin1 (HeLa) (Homo sapiens (Human)., UniProt Q6NZI2); assay: as above; conditions: partners not purified
T15 construct: Cavin1 (PTRF), endogenous in human HeLa cells; also called PTRF; source: endogenous, HeLa lysate

[14] = molecular target: the molecule itself; assay: crystal structure; complex formed with 1.5-fold molar excess of NbB7 and purified by SEC; hanging-drop vapour diffusion, 20°C; X-ray

T2 sequence (Q5PQY9 entry or part of it): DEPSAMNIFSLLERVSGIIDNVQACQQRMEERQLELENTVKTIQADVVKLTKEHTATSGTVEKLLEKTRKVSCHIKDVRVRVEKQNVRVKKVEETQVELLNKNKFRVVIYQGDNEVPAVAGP
T11 sequence (O54724 whole entry): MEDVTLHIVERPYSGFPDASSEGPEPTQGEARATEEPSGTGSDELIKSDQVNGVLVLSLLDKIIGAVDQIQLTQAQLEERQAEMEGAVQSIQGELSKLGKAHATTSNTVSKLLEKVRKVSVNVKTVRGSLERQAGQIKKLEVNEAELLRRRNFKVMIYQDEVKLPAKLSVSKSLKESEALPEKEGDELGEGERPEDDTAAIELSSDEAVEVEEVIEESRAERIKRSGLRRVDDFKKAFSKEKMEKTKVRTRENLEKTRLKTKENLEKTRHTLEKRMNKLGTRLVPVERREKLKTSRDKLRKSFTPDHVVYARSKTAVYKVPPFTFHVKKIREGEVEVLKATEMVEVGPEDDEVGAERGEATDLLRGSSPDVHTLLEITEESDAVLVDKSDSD
T15 sequence (Q6NZI2 whole entry): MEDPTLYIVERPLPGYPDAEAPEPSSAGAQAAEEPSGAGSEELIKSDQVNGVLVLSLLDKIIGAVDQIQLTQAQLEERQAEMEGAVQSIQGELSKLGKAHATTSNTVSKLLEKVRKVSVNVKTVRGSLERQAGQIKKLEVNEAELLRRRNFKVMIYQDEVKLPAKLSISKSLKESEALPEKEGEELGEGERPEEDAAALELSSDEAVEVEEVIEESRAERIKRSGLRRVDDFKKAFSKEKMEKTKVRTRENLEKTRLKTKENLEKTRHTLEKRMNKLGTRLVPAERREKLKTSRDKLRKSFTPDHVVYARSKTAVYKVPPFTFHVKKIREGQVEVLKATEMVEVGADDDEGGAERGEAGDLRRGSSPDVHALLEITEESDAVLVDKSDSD
T14 sequence (Q03135 whole entry): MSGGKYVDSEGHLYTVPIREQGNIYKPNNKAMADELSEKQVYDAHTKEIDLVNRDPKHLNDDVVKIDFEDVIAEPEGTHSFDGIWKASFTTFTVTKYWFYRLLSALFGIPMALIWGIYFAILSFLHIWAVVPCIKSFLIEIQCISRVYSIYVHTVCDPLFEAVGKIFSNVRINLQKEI
T5 sequence (A1L260 16-123): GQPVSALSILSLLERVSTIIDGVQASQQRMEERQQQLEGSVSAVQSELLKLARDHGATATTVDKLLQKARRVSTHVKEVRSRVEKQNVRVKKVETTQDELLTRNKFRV
T13 sequence (A1L260 whole entry, looked up, the tested form may be a part): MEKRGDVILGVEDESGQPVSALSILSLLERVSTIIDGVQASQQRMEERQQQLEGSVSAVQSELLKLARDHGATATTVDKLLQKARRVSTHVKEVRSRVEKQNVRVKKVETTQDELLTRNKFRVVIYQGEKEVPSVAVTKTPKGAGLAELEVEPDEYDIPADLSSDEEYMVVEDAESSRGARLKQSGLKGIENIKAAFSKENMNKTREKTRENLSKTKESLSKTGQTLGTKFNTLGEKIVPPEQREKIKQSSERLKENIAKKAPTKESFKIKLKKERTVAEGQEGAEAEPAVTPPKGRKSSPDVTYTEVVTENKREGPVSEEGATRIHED

B1: Nanobody NbB7 (VHH)
VHH: QVQLQESGGGLVQAGGSLRLSCAVSGIRVNVNAMYWYRQAPGKQRELVAIITTFGSTNYADSAKGRFTISRDNTKNTVYLQMDNLKPEDTAVYYCNAPQFTDRYWGQGTQVTVSS
notes: the same chain is in PDB 9EGN, 9EG6 and 9EIU; source: E. coli WK6, periplasmic expression, purified (TALON, SEC)
- Kd [1]: 2890 ± 1010 nM
- binding result [2]: no binding
- Kd [3]: 67 ± 20 nM
- Kd [4]: 140 ± 40 nM

B2: Nanobody NbA12 (VHH)
VHH: QVQLQESGGGLVQAGGSLRLSCAASGFTFDDYAIGWFRQAPGKEREGVSCITSSDGSTYYADSVKGRFTISSDNAKNTVYLQMNSLKPEDTAVYYCAAESWPPLCHYSGMDYWGKGTQVTVSS
notes: Selected by phage display from an alpaca immunised with mC1-HR1; source: E. coli WK6, periplasmic expression, purified (TALON, SEC)
- binding result [5]: no binding
- binding result [2]: no binding
- Kd [3]: 2170 ± 20 nM
- Kd [4]: 3020 ± 1940 nM

B3: nanobody NbA12 (VHH)
VHH: B2 VHH
notes: alpaca nanobody raised against mC1-HR1; Cloned in pMES4 with a C-terminal 6x histidine tag; source: E. coli WK6, periplasmic expression, purified (TALON, SEC); not shown: His6, C-terminal, kept
- Kd [6]: 2000 nM
- Kd [7]: 3000 nM
- binding result [8]: binds
- binding result [9]: binds
- binding result [10]: binds
- binding result [11]: binds
- binding result [12]: no binding
- binding result [13]: no binding

B4: nanobody NbB7 (VHH)
VHH: B1 VHH
notes: also in the deposited structures PDB 9EGN, 9EG6, 9EIU; alpaca nanobody raised against mC1-HR1; Cloned in pMES4 with a C-terminal 6x histidine tag; source: E. coli WK6, periplasmic expression, purified (TALON, SEC); not shown: His6, C-terminal, kept
- Kd [6]: 66.7 nM
- Kd [7]: 142 nM
- Kd [9]: 520 nM
- binding result [12]: no binding

B5: C-terminal GFP-tagged NbB7 (VHH)
VHH: B1 VHH
notes: as the VHH of m1; pEGFP-N1; also called NbB7–GFP; source: HeLa, transiently transfected, in lysate; not shown: GFP, C-terminal, kept
- binding result (endogenous CAV1 (HeLa)): binds
- binding result (endogenous Cavin1 (HeLa)): binds

B6: mouse Cavin1 HR1 domain (residues 45–155) as crystallised with NbB7 (domain or fragment, UniProt O54724 45-155, looked up)
chain: LIKSDQVNGVLVLSLLDKIIGAVDQIQLTQAQLEERQAEMEGAVQSIQGELSKLGKAHATTSNTVSKLLEKVRKVSVNVKTVRGSLERQAGQIKKLEVNEAELLRRRNFKV
notes: mouse Cavin1 (PTRF), HR1 coiled-coil domain, residues 45-155 in the crystallised construct; residues 56-98 ordered; also called mC1-HR1; source: E. coli, purified (SEC)
- stoichiometry N [14]: 3
